Assay results from patent US20170079251.

How the values were obtained:
Assay in all cases: cell_activity
[1] = test system: btPRLR 9.13 TALEN right (synthetic); details: pair value, bovine fibroblasts
[2] = test system: btPRLR 9.1 TALEN right (synthetic); details: pair value, bovine fibroblasts, TALEN mRNA
[3] = test system: btPRLR 9.8 TALEN left (synthetic); details: pair value, bovine fibroblasts; also active in zygotes (Table VI)
[4] = test system: btPRLR 9.9 TALEN right (synthetic); details: pair inactive, bovine fibroblasts
[5] = test system: btPRLR 9.5 TALEN right (synthetic); details: pair value, bovine fibroblasts
[6] = test system: btPRLR 9.3 TALEN right (synthetic); details: pair inactive, bovine fibroblasts
[7] = test system: btPRLR 9.4 TALEN left (synthetic); details: pair inactive, but same left RVDs active in 9.5
[8] = test system: btPRLR 9.2 TALEN right (synthetic); details: pair inactive, bovine fibroblasts
[9] = test system: btPRLR 9.3 TALEN left (synthetic); details: pair inactive, bovine fibroblasts
[10] = test system: btPRLR 9.8 TALEN right (synthetic); details: pair value, bovine fibroblasts; also active in zygotes (Table VI)
[11] = test system: btPRLR 9.5 TALEN left (synthetic); details: pair value, bovine fibroblasts
[12] = test system: btPRLR 9.13 TALEN left (synthetic); details: pair value; printed RVDs lack one HD relative to target
[13] = test system: btPRLR 9.10 TALEN right (synthetic); details: pair inactive, bovine fibroblasts
[14] = test system: btPRLR 9.6 TALEN right (synthetic); details: pair inactive; one RVD printed as N, read as NN
[15] = test system: btPRLR 9.9 TALEN left (synthetic); details: pair inactive, bovine fibroblasts
[16] = test system: btPRLR 9.11 TALEN right (synthetic); details: pair inactive, bovine fibroblasts
[17] = test system: btPRLR 9.6 TALEN left (synthetic); details: pair inactive, bovine fibroblasts
[18] = test system: btPRLR 9.14 TALEN left (synthetic); details: pair inactive, bovine fibroblasts
[19] = test system: btPRLR 9.2 TALEN left (synthetic); details: pair inactive, bovine fibroblasts
[20] = test system: btPRLR 9.10 TALEN left (synthetic); details: pair inactive, bovine fibroblasts
[21] = test system: btPRLR 9.7 TALEN left (synthetic); details: pair inactive, bovine fibroblasts
[22] = test system: btPRLR 9.11 TALEN left (synthetic); details: pair inactive, bovine fibroblasts
[23] = test system: btPRLR 9.1 TALEN left (synthetic); details: pair value, bovine fibroblasts, TALEN mRNA
[24] = test system: btPRLR 9.14 TALEN right (synthetic); details: pair inactive, bovine fibroblasts
[25] = test system: btPRLR 9.12 TALEN right (synthetic); details: pair value, bovine fibroblasts; also active in zygotes (Table VI)
[26] = test system: btPRLR 9.12 TALEN left (synthetic); details: pair value, bovine fibroblasts; also active in zygotes (Table VI)
[27] = test system: btPRLR 9.7 TALEN right (synthetic); details: pair inactive; printed RVDs read the sense strand
[28] = test system: btPRLR 9.4 TALEN right (synthetic); details: pair inactive, bovine fibroblasts

AAAAGCCTCAAAAACCATTGAAACTGGCAGGGAAGGAAAGGCAACCAAGCAG (double strand) [9.13 right site]
activity [1]: 6.8 % Cel-I

GGCCGGCACCACAGCCACTTCGCTGGACCAAACAGACCAACATGCTTTA (double strand) [9.1 right site]
activity [2]: 20.9 % Cel-I

GTGGCCACGACCCCAAGACAAAACCCCCTTGATCTCTGCTAAACCCTTGG (double strand) [9.8 left site]
activity [3]: 10.1 % Cel-I

CAGAAGGCTGCAGTTCCAAGCCTGACCAAGACACGGTGTGGCCACG (double strand) [9.9 right site]
activity [4]: 0 % Cel-I

GCTTTAAAAGCCTCAAAAACCATTGAAACTGGCAGGGAAGGAAAGGCAACCA (double strand) [9.5 right site]
activity [5]: 13.9 % Cel-I

GGCCGGCACCACAGCCACTTCGCTGGACCAAACAGACCAACATGCTTTAA (double strand) [9.3 right site]
activity [6]: 0 % Cel-I

GCTTTAAAAGCCTCAAAAACCATTGAAACTGGCAGGGAAGGAAAGGCAACCA (double strand) [9.4 left site]
activity [7]: 0 % Cel-I

GCTTTAAAAGCCTCAAAAACCATTGAAACTGGCAGGGAAGGAAAGGC (double strand) [9.2 right site]
activity [8]: 0 % Cel-I

GGCCGGCACCACAGCCACTTCGCTGGACCAAACAGACCAACATGCTTTAA (double strand) [9.3 left site]
activity [9]: 0 % Cel-I

GTGGCCACGACCCCAAGACAAAACCCCCTTGATCTCTGCTAAACCCTTGG (double strand) [9.8 right site]
activity [10]: 10.1 % Cel-I

GCTTTAAAAGCCTCAAAAACCATTGAAACTGGCAGGGAAGGAAAGGCAACCA (double strand) [9.5 left site]
activity [11]: 13.9 % Cel-I

AAAAGCCTCAAAAACCATTGAAACTGGCAGGGAAGGAAAGGCAACCAAGCAG (double strand) [9.13 left site]
activity [12]: 6.8 % Cel-I

GGCCACGACCCCAAGACAAAACCCCCTTGATCTCTGCTAAACCCTTGGAAT (double strand) [9.10 right site]
activity [13]: 0 % Cel-I

GGCCGGCACCACAGCCACTTCGCTGGACCAAACAGACCAACATGCTTT (double strand) [9.6 right site]
activity [14]: 0 % Cel-I

CAGAAGGCTGCAGTTCCAAGCCTGACCAAGACACGGTGTGGCCACG (double strand) [9.9 left site]
activity [15]: 0 % Cel-I

CAAAAACCATTGAAACTGGCAGGGAAGGAAAGGCAACCAAGCAGAGGGAGTC (double strand) [9.11 right site]
activity [16]: 0 % Cel-I

GGCCGGCACCACAGCCACTTCGCTGGACCAAACAGACCAACATGCTTT (double strand) [9.6 left site]
activity [17]: 0 % Cel-I

CAAAAACCATTGAAACTGGCAGGGAAGGAAAGGCAACCAAGCAGAGGGAGTC (double strand) [9.14 left site]
activity [18]: 0 % Cel-I

GCTTTAAAAGCCTCAAAAACCATTGAAACTGGCAGGGAAGGAAAGGC (double strand) [9.2 left site]
activity [19]: 0 % Cel-I

GGCCACGACCCCAAGACAAAACCCCCTTGATCTCTGCTAAACCCTTGGAAT (double strand) [9.10 left site]
activity [20]: 0 % Cel-I

CAGACCAACATGCTTTAAAAGCCTCAAAAACCATTGAAACTGGCAG (double strand) [9.7 left site]
activity [21]: 0 % Cel-I

CAAAAACCATTGAAACTGGCAGGGAAGGAAAGGCAACCAAGCAGAGGGAGTC (double strand) [9.11 left site]
activity [22]: 0 % Cel-I

GGCCGGCACCACAGCCACTTCGCTGGACCAAACAGACCAACATGCTTTA (double strand) [9.1 left site]
activity [23]: 20.9 % Cel-I

CAAAAACCATTGAAACTGGCAGGGAAGGAAAGGCAACCAAGCAGAGGGAGTC (double strand) [9.14 right site]
activity [24]: 0 % Cel-I

TCGCTGGACCAAACAGACCAACATGCTTTAAAAGCCTCAAAAACCATTG (double strand) [9.12 right site]
activity [25]: 15.9 % Cel-I

TCGCTGGACCAAACAGACCAACATGCTTTAAAAGCCTCAAAAACCATTG (double strand) [9.12 left site]
activity [26]: 15.9 % Cel-I

CAGACCAACATGCTTTAAAAGCCTCAAAAACCATTGAAACTGGCAG (double strand) [9.7 right site]
activity [27]: 0 % Cel-I

GCTTTAAAAGCCTCAAAAACCATTGAAACTGGCAGGGAAGGAAAGGCAACCA (double strand) [9.4 right site]
activity [28]: 0 % Cel-I
